Experimental data reported in the nanobody polyreactivity screen of Harvey et al. (2022).

Experiment: yeast display, Sf9 membrane polyspecificity reagent, FACS + sequencing; frameworks hold sequencing errors
In short: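 A nanobody's polyreactivity label depends on the gate it was sorted from. Yeast display cells were stained with 10% biotinylated, detergent-solubilized Sf9 membrane reagent for 1 hour at 4 °C, enriched on streptavidin microbeads and sorted by FACS. The low and high (top ~1%) gates were set on anti-HA fluorescence for expression and streptavidin fluorescence for reagent binding.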

Sequence | polyreactivity (PSR sort gate)
QVQLVESGGGLVQAGGSLRLSCAASGSTFWYYAMGWYRQAPGKERELVAAISRSTGSTYYADSVKGRFTISRDNAKNTVYLQMNSLKPEDTAVYYCNKDPVPSFFIPEIGYSEYDYWGQGTQVTVSS | low polyreactivity
QVQLVESGGGLVQAGGSLRLSCAASGSTFWYYAMGWYRQAPGKERQLVAAISRNGVSTYYADSVKGRFTISRDIAKNTVYLQMNSMKPEDTAVYYCNVVTKFTGRGYDYWGQGTQVTVSS | high polyreactivity
QVQLVESGGGLVQAGGSLRLSCAASGSTFWYYTMGWYRQAPGKERELVAAITESGGGTYYADSVKGRFTISRDNAKNTVYLQMNSLKPEDTAVYYCAAYSRFTSDYWGQGTQVTVSS | high polyreactivity
QVQLVESGGGLVQAGGSLRLSCAASGSTFYANAMGWYRQAPGKEREFVADITISGGRTYYADSVKGRFTISRDNAKNTVYLQMNSLKPEDTAVYYWNTRGIFFQSQTHDYWGQGTQVTVSS | low polyreactivity
QVQLVESGGGLVQAGGSLRLSCAASGSTFYANAMGWYRQAPGKERELVAAIDSGGTTTYADSVKGRFTISRDNAKNTVYLQMNSLKPEDTAVYYCAADQYWYIWYDYWGQGTQVTVSS | low polyreactivity
QVQLVESGGGLVQAGGSLRLSCAASGSTFYAYTMGWYRQAPGKERELVAAITSSGSNTYYADSVKGRFTISRDNAKNTVYLQMNSLKPEDTAVYYCAARITREGYYWGQGTQVTVSS | high polyreactivity
QVQLVESGGGLVQAGGSLRLSCAASGSTFYDSAMGWYRQAPGKERELVAAINWSSDTTYYADSVKGRFTISRDNAKNTVYLQMNSLKPEDTAVYYCATDSAYRGYDYWGQGTQVNVSS | low polyreactivity
QVQLVESGGGLVQAGGSLRLSCAASGSTFYDYVMGWYRQAPGKERELVAAITGSGGRTYYADSVKGRFTISRDNAKNTVYLQMNSLKPEDTAVYYCAVRVHYNRVYGRYSPRYDYWGQGTQVTVSS | high polyreactivity
QVQLVESGGGLVQAGGSLRLSCAASGSTFYENTMGWYRQAPGKERELVAAISVRGGSTYYADSVKGRFTISRDNEKKTVYLQMNRLKPEDTAVYYCAVLDVYRYRMDYSGQGTQVTVSS | low polyreactivity
QVQLVESGGGLVQAGGSLRLSCAASGSTFYFYAMGWYRPAPGKERELVAAITYSGGSTYYADSVKGRFTISRDNAKNTVYLQMNSLKPEDTAVYYCAAQWRRHSTRSRYYYWGQGSQVTVSS | high polyreactivity
QVQLVESGGGLVQAGGSLRLSCAASGSTFYFYDMGWYRQAPGKERELVATIDDGGGSTYYADSVKGRFTISRDNAKNTVYLQMNSLKPEDTAVYYCNADDSEYLIYDYWGQGTQVTVSS | low polyreactivity
QVQLVESGGGLVQAGGSLRLSCAASGSTFYGNAMGWYRQAPGKERELVATIDSTAGTNYADSVKGRFTISRDNAKNTVYLQMNSLKPEDTAVYYCAREYSIYNPPGYLGTVEYDYWGQGTQVTVSS | low polyreactivity
QVQLVESGGGLVQAGGSLRLSCAASGSTFYGNAMGWYRQAPGKERELVATISWSGGSTYYADSVKGRFTISRDNAKNTVYLQMNSLKPEDTAVYYCNAEITTKSLVTRYSWYGGDYWGQGTQVTVSS | low polyreactivity
QVQLVESGGGLVQAGGSLRLSCAASGSTFYGYALGWYRQAPGKERELVAAITRSGGSTYYADSVKGRFTISRDNAKNTVYLQMNSLKPEDTEVYYCNKYGYKGGVGYDYWGQGTQVTVSS | high polyreactivity
QVQLVESGGGLVQAGGSLRLSCAASGSTFYGYAMGWYRQAPGKERELVAAINWSGGRTYYADSVKGRFTISRDNAKNTVYLQMNSLKPEDTAVYYCAARGRYQPQFDYWGQGTQVTVSS | high polyreactivity
QVQLVESGGGLVQAGGSLRLSCAASGSTFYHNVMGWYRQAPGKERELVASIYRGGSTYYADSVKGRFTISRDNAKNTVYLQMNSLKPEDTAVYYCAKEYKSLWWDGRMNYWGQGTQVTVSS | low polyreactivity
QVQLVESGGGLVQAGGSLRLSCAASGSTFYHYAMGWYRKAPGKERELVAAISTSGGRTYYADSVKGRFTISRDNAKNTVYLQLNSLKPEDTAVYYCAARPGSWFPSVPSYNYWGQGTQVTVSS | low polyreactivity
QVQLVESGGGLVQAGGSLRLSCAASGSTFYHYAMGWYRQAPGKERELVAAISTSGGRTYYADSVKGRFTISRDNAKNTVYLQMNSLKPEDTAVYYCAARPGSWYPSVPSYNYWGQGTQVTVSS | low polyreactivity
QVQLVESGGGLVQAGGSLRLSCAASGSTFYINAMGWYRQAPGKERELVAAITSGGSTNYADSVKGRFTISRDNAKNTVYLQMNSLKPEDTAVYYCAKVSYYPWRYDYWGQGTQVTVSS | low polyreactivity
QVQLVESGGGLVQAGGSLRLSCAASGSTFYINDMGWYRQAPGKERELVASISWRGGSTYADSVKGRFTISRDNAKNTDYLQMNSLKPEDTAVYYCAAEFDVYSHHWITSYDYWGQGTQVTVSS | high polyreactivity
QVQLVESGGGLVQAGGSLRLSCAASGSTFYIYAMGWSRQAPGKERELVARISGSGGSTYYADSVKGRFTISRDNAKNTVYLQMNSLKPEDTAVYYCAADDIYKYYQYYAFPYYRYDYWGQGTQVTVSS | low polyreactivity

Sequence | polyreactivity (PSR sort gate)
QVQLVESGGGLVQAGGSLRLSCAASGSTFYIYAMGWYRQAPGKERELVAVITRRGGSTSYADSVKGRFTISRDNAKNTVYLQINSLKPEDTAVYYCAAKRTWPDVKYIRYGYWGQGTQVTVSS | high polyreactivity
QVQLVESGGGLVQAGGSLRLSCAASGSTFYIYAMGWYRQAPGKERELVAVITRRGGSTSYADSVKGRFTISRDNAKNTVYLQMNSLKPEDTAVYYCAAKRTWPDVKYIRYGYWGQGAQVTVSS | high polyreactivity
QVQLVESGGGLVQAGGSLRLSCAASGSTFYIYAMVWYRQAPGKERELVAAITGTGGSTYYADSVKGRFTISRDNAKNSVYLQMNSLKPEDTAVYYCAVGFGYYYKYGYWGQGTQVTVSS | low polyreactivity
QVQLVESGGGLVQAGGSLRLSCAASGSTFYKNAMGWNRQAPGKERELVASISRSGGSTSYADSVKGRFTISRDNAKNTVYLQMNSLKPEDTAVYYCAATWRQHPGSMGYWGQGTQVTVSS | high polyreactivity
QVQLVESGGGLVQAGGSLRLSCAASGSTFYKNAMGWYRQAPGKERELVAVINASGDSTYYADSVKGRFTISRDNAKNTVYLQMNSLKPEDTAVYYCAADHRGEYDYWGQGTQVTVSS | low polyreactivity
QVQLVESGGGLVQAGGSLRLSCAASGSTFYKYAMGWSRQAPGKERELVASITGGTRTYYADSVKGRFTISRDNAKNTVYLQMNSLKPEDTAVYYCNVVGGRYLYSAYDYWGQGTQVTVSS | low polyreactivity
QVQLVESGGGLVQAGGSLRLSCAASGSTFYKYAMGWYRQAPGIEPELVAAISRGGSTYYADSVKGRFTISRDNAKNTVYLQMNSLKPEDTAVYYCAAETVSYYSKYDYWGQGTQVTVSS | low polyreactivity
QVQLVESGGGLVQAGGSLRLSCAASGSTFYLNAMGWYRQAPGKERELVATKNSSGSTYNADSVKGRFTISRDNAKNTVYLQMNILKPEDTAVYYCNAYGSDRLSLDDYWGQGTQVTVSS | low polyreactivity
QVQLVESGGGLVQAGGSLRLSCAASGSTFYLNVMGWYRQAPGKERELVAAISSGDGSTYYADSVKGRFTISRDNAKNTVYLQMNSLKPEDTAVYYCAAEPDTEVDYDYWGQGTQVTVSS | low polyreactivity
QVQLVESGGGLVQAGGSLRLSCAASGSTFYPNAKGWYRQAPGKDREFVAASSTSAGRTYYADSVKGRFTISRDNAKKTVYLQINSLKPEDTAVYYCNARYWVYYVYEYDSWGQGTQVTVSS | low polyreactivity
QVQLVESGGGLVQAGGSLRLSCAASGSTFYPNAMGWYRQAPGKERELVAAISRGTRTKYADSVKGRFTISRDNAMNTVYLQMNSLKPEDTAVYYCAADTGTGLDWGQGTQVTVSS | high polyreactivity
QVQLVESGGGLVQAGGSLRLSCAASGSTFYPNAMGWYRQAPGKERELVAAITGGGSTTYADSVKGRFTISRDNAKNTVYLQMNSLKQEDTAVYYCNTDGPRYARPYDSWGQGTQVTVSS | low polyreactivity
QVQLVESGGGLVQAGGSLRLSCAASGSTFYPTYAMGWYRQAPGKERELVATITGSGGSTYYADSVKGRFTISRDNAKNTVYLQMNSLKPEDTAVYYCAADRWYSRYTRYGYWGQGTQVTVSS | low polyreactivity
QVQLVESGGGLVQAGGSLRLSCAASGSTFYPYAKGWYRQAPRKERELVATITNSGGSTYYADSVKGRFTISRDNAKNTVYLQMNSLKPEDTAVYYCARVRSRNTGYYYWGQGTQVTVSS | high polyreactivity
QVQLVESGGGLVQAGGSLRLSCAASGSTFYPYAMGWYRQAPGKEREFVAGISRSGGTTYYADSLKGRFTISRDNAKNTVYLQMNSLKPEDTAVYYCAVQIPYVYWSYDYWGQGTEVTVSS | low polyreactivity
QVQLVESGGGLVQAGGSLRLSCAASGSTFYPYAMGWYRQAPGKERELVAAITTRGRTYYGDSVKGRFTISRDNAKYTVYLQMNSLKPEDTAVYYCNARRYFSRDTSGYNYWGQGTQVTVSS | high polyreactivity
QVQLVESGGGLVQAGGSLRLSCAASGSTFYPYVMGWYRQAPGKERELVAGISYRGGITYYADSVKGRFTISRDYAKNTVYLQMNSLKPEDTAVYYCAADYWSVYLARKMDYWGQGTQVTVSS | low polyreactivity
QVQLVESGGGLVQAGGSLRLSCAASGSTFYRNAMGWYRQAPGKERELVAGISRRGGSTYYADSVKGRFTISRDNAKNTVYLQMNSLKPEDTAVYYCNADYPGIPHNDYWGQGTQVTVSS | low polyreactivity
QVQLVESGGGLVQAGGSLRLSCAASGSTFYRNVMGWYRQAPGKERELVAAISSGGSTYYADSVKGRFTISRDNAKNTVYLQMNSLKPEDTAVYYCARRLTREYDYWGQGTQVTVSS | low polyreactivity
QVQLVESGGGLVQAGGSLRLSCAASGSTFYRYALGWYRQAPGKERELVAAISRSGGNTFYADSVKGRFTISRDNAKNTVYLQMNRLKPEDTAVYYCAALRSWYAQTSGMDYWGQGTHVTVSS | high polyreactivity
